The values below are quoted from earlier work in publication PMC7708053.

The target of this data set is T1, hnRNP L (cited Kd) (UniProt P14866).
T1 sequence: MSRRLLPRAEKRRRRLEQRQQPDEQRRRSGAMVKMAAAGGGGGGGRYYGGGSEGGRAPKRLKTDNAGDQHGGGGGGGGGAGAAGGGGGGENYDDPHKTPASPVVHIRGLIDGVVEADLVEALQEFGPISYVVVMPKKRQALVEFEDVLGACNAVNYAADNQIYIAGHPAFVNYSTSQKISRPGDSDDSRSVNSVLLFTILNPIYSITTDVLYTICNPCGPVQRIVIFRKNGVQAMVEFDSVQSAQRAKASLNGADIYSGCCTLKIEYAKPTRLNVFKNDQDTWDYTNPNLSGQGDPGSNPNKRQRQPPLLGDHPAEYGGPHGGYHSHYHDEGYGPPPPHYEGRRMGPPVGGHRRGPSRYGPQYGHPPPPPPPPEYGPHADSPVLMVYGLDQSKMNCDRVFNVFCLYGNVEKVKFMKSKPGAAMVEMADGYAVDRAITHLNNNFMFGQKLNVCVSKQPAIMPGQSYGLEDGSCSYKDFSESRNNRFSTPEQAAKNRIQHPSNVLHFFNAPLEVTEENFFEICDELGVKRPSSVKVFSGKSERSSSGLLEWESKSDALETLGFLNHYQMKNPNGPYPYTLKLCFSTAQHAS
In words: not stated (cited). As to conditions: 50 pmol biotinylated RNA on streptavidin beads with HeLa lysate in RIPA (50 mM Tris-Cl pH 7.4, 150 mM NaCl, 5 mM EDTA, 1% NP-40), washed at 300 mM KCl ….

For “AUACAUGACACACACACGCA [CA-SELEX#51 20-mer]”, the Kd is 7.2 nM.

The term Kd denotes the concentration at which binding is half-saturated.
